Experimental findings from US20230140397A1 (JIANGSU HENGRUI PHARMACEUTICALS, published 2023) are described below.

Experiment [1] addresses T1, prostate specific membrane antigen (PSMA) on prostate cancer cells (human, UniProt Q04609 1-750).
T1 construct: whole, on cells; Printed expression order: MDA PCa 2b > LNCaP > 22Rv1; also called glutamate carboxypeptidase II (GCPII); FOLH1
The experiment in a line: flow cytometry on MDA PCa 2b cells (PSMA-expressing), FITC anti-human IgG detection. A general note: In flow cytometry, cells or beads pass a laser one at a time.

For experiment [2], the target named is T1, prostate specific membrane antigen …. The experiment in a line: cell-based or functional assay.
Experiment [3] shares this target. In words: flow cytometry on LNCaP cells, FITC anti-human IgG secondary. How it is done:
(§1) In this experiment, fluorescence signals of antibodies on the cell surface were detected, and the binding of the antibodies was evaluated according to the intensity of the fluorescence signals.
(§2) The cells were incubated with an FITC-labeled goat anti-human IgG (H+L) secondary antibody (Jackson Immuno Research, 109-095-003) at 4° C. for 30 min, and then excess antibodies were washed off. The fluorescence signals on the cell surface were read using BD CantoII. The results are shown in Table 2, FIG. 1A, FIG. 1B, FIG. 1C, FIG. 1D, and FIG. 1E.

The target is the same in experiment [4]. The experiment in a line: flow cytometry on MDA PCa 2b cells, FITC anti-human IgG secondary. The procedure: as §1, §2
Experiment [5] has the same target. The experiment in a line: flow cytometry on 22Rv1 cells, FITC anti-human IgG secondary. How it is done:
as §1, §2

T1 sequence (Q04609 whole entry): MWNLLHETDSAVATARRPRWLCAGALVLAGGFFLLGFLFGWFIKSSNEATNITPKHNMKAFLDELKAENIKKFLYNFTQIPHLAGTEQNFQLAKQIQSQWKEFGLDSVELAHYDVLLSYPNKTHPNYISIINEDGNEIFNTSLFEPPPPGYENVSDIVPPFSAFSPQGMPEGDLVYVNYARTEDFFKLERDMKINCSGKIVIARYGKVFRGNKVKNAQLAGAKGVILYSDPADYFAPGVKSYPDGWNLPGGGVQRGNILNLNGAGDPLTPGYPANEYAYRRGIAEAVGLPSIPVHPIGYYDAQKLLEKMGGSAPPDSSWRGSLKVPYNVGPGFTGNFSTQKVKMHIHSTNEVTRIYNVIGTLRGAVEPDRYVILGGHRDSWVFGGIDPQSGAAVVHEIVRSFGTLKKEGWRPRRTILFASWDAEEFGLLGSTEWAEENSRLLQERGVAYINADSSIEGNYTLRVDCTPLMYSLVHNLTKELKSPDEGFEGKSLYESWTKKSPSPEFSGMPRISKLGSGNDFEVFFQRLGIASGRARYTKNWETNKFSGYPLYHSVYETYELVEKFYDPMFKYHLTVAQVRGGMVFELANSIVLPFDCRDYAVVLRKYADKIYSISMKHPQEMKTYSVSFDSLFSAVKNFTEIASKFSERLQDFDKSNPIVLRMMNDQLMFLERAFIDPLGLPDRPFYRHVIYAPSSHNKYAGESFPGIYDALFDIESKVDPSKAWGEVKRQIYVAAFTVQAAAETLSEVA

B1: Lmab-9-A (control antibody-drug conjugate of labeuzumab with compound 9-A, n=7.07) (antibody, human IgG1, kappa, V domains shown)
VH: EVQLVESGGGVVQPGRSLRLSCSASGFDFTTYWMSWVRQAPGKGLEWIGEIHPDSSTINYAPSLKDRFTISRDNAKNTLFLQMDSLRPEDTGVYFCASLYFGFPWFAYWGQGTPVTVSS
VL: DIQLTQSPSSLSASVGDRVTITCKASQDVGTSVAWYQQKPGKAPKLLIYWTSTRHTGVPSRFSGSGSGTDFTFTISSLQPEDIATYYCQQYSLYRSFGQGTKVEIKR
modifications: drug-linker compound 9-A coupled to cysteine after TCEP reduction; positions not given; mean n=7.07 per antibody (UV-Vis)
notes: also called control ADC Lmab-9-A; ADCLmab-9-A
As for B1, in experiment [1], the binding result is “no binding”.

B2: Antibody PM (intact full-length anti-PSMA antibody PM, variable regions of AB-PG1-XG1-006) (antibody, V domains shown)
VH: QVQLVESGGGVVQPGRSLRLSCAASGFAFSRYGMHWVRQAPGKGLEWVAVIWYDGSNKYYADSVKGRFTISRDNSKNTQYLQMNSLRAEDTAVYYCARGGDFLYYYYYGMDVWGQGTTVTVSS
VL: DIQMTQSPSSLSASVGDRVTITCRASQGISNYLAWYQQKTGKVPKFLIYEASTLQSGVPSRFSGGGSGTDFTLTISSLQPEDVATYYCQNYNSAPFTFGPGTKVDIKR
notes: Full-length IgG1/kappa (VH-CH1-Fc/VK-CL), expressed in HEK293E cells; also called AB-PG1-XG1-006 (variable regions)
Regarding B2, the “Endocytic activity of different cells to the antibodies (IC50, nM); DT3C-mediated cell killing, 22RV1 cells” value in experiment [2] came out at 0.0856 nM. The EC50 (usually the concentration at which the effect is half-maximal) was found to be 1420 pM in experiment [3], 1080 pM in experiment [4] and 676 pM in experiment [5].

B3: ADC-10 (exemplary product of the conjugate of formula PM-VcMMAE, n=3.92) (antibody, V domains shown)
VH: QVQLVESGGGVVQPGRSLRLSCAASGFAFSRYGMHWVRQAPGKGLEWVAVIWYDGSNKYYADSVKGRFTISRDNSKNTQYLQMNSLRAEDTAVYYCARGGDFLYYYYYGMDVWGQGTTVTVSS
VL: DIQMTQSPSSLSASVGDRVTITCRASQGISNYLAWYQQKTGKVPKFLIYEASTLQSGVPSRFSGGGSGTDFTLTISSLQPEDVATYYCQNYNSAPFTFGPGTKVDIKR
modifications: VcMMAE coupled via a mercapto group on cysteine after TCEP reduction; positions not given; mean n=3.92 per antibody (CE-SDS); VcMMAE (CAS 646502-53-6) coupled via a mercapto group on cysteine after TCEP reduction; positions not given; mean n=3.92 per antibody (CE-SDS)
notes: also called positive ADC-10
Regarding B3, the EC50 in experiment [3] stood at 1580 pM; in experiment [4], 954 pM; in experiment [5] it was 689 pM.

B4: ADC-2 (exemplary product of the conjugate of formula PM-9-A, n=6.63) (antibody, V domains shown)
VH: QVQLVESGGGVVQPGRSLRLSCAASGFAFSRYGMHWVRQAPGKGLEWVAVIWYDGSNKYYADSVKGRFTISRDNSKNTQYLQMNSLRAEDTAVYYCARGGDFLYYYYYGMDVWGQGTTVTVSS
VL: DIQMTQSPSSLSASVGDRVTITCRASQGISNYLAWYQQKTGKVPKFLIYEASTLQSGVPSRFSGGGSGTDFTLTISSLQPEDVATYYCQNYNSAPFTFGPGTKVDIKR
modifications: drug-linker compound 9-A coupled via a mercapto group on cysteine after TCEP reduction; positions not given; mean n=6.63 per antibody (UV-Vis); drug-linker compound 9-A (exatecan analog with linking unit) coupled via a mercapto group on cysteine after TCEP reduction; positions not given; mean n=6.63 per antibody (UV-Vis)
notes: also called PSMA ADC
As for B4, the values for the half-maximal effective concentration (EC50) in experiment [3], in experiment [4] and in experiment [5] were 938 pM, 718 pM and 571 pM, respectively.
